Starred links: 1 amine or outer side, 2 acyl side, 3 side chain; linkers in the order of their positions; H or OH if unused. Positions of bridges follow the written chain, without caps; N, C: chain ends. Primed or numbered codes have the meaning given here. *: point of attachment. NOTA = O=C(O)CN1CCN(CC(=O)O)CCN(CC(=O)*)CC1; TBMB = c1c(C[*:1])cc(C[*:3])cc1C[*:2]; PEG3′ = not defined here

The experiment addresses His-Tagged human CD38 (recombinant) (human, UniProt P28907 1-300). Put plainly: SPR.

B1: AJ206 (peptide)
peptide: {NOTA-PEG3′}-ACVPCADFPIWYC-NH2
modifications: linker 2-5-13 via TBMB (inferred)
The term koff denotes the first-order rate constant of dissociation. B1: the koff came out at 0.0006 s⁻¹.

The values above are taken from publication PMC11040352 (2024).
